Experimental data published in article PMC12449476, “Transient ligand contacts of the intrinsically disordered N-terminus of neuropeptide Y2 receptor regulate arrestin-3 recruitment” (Nature Communications, 2025).
Positions count from the first letter of the chain named.

Key:
Nluc-Y2R-eYFP Δ2-41 [1] = target: T1, Nluc-Y2R-eYFP Δ2-41 (Homo sapiens, UniProt P49146); test: NanoBRET equilibrium ligand binding
T1 construct: expressed in transfected cells; host or cells: membrane preparations of transiently transfected HEK293
T1 sequence (P49146 with tags, fused parts or gaps): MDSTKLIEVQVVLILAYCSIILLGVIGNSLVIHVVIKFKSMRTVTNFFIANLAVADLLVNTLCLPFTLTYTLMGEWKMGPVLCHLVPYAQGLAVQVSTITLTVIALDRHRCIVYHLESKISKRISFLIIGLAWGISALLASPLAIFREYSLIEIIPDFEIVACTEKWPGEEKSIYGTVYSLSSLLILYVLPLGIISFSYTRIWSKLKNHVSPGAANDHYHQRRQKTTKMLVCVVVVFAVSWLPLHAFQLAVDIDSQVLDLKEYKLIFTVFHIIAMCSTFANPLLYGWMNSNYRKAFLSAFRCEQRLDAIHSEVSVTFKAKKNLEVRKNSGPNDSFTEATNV
Experimental: (§1) Briefly, for each data point, membranes containing 0.03 μg total protein were suspended in ice-cold BRET binding buffer (Hank’s balanced salt solution (HBSS) containing 20 mM HEPES (pH 7.4), 0.1% bovine serum albumin (BSA)). The assay was performed in solid black 96-WP with a total assay volume of 100 μL in technical duplicate or triplicate. […] To determine unspecific binding, 100 µM of the Y2R antagonist JNJ-31020028 (Selleck Europe) were added to each well. […] To start the dissociation measurement, the antagonist JNJ-31020028 was added to a final concentration of 50 µM (20 µL) using the built-in injector system of the plate reader and the BRET decay was measured for 20 min. Raw BRET was calculated as the ratio of fluorescence to luminescence, and the background value of the unspecific binding controls was subtracted to obtain the netBRET signal.

Nluc-Y2R-eYFP Δ2-41 [2] = target: T1, Nluc-Y2R-eYFP Δ2-41; test: NanoBRET ligand dissociation; type: binding; settings: koff
Experimental: as §1

Nluc-Y2R-eYFP D/E35-39K = target: T2, Nluc-Y2R-eYFP D/E35-39K (Homo sapiens, UniProt P49146, D35K/E37K/E39K); test: NanoBRET ligand dissociation; type: binding; settings: koff, charge reversal in the acidic patches
T2 construct: expressed in transfected cells; host or cells: HEK293, transiently transfected, membrane preparations
T2 sequence (P49146 1-381 D35K/E37K/E39K): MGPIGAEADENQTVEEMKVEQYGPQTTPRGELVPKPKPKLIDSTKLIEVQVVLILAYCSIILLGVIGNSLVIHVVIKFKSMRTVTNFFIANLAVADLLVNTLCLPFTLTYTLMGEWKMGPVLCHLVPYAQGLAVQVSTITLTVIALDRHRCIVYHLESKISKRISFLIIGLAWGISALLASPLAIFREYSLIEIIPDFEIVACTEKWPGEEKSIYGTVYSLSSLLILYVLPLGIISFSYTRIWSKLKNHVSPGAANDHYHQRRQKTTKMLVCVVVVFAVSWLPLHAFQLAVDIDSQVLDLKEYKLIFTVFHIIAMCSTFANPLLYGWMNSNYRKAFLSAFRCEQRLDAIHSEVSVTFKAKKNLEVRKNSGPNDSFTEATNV
Experimental: as §1

Nluc-Y2R-eYFP E15-20K = target: T3, Nluc-Y2R-eYFP E15-20K (Homo sapiens, UniProt P49146, E15K/E16K/E20K); test: NanoBRET ligand dissociation; type: binding; settings: koff, charge reversal in the acidic patches
T3 construct: expressed in transfected cells; host or cells: membrane preparations of transiently transfected HEK293
T3 sequence (P49146 1-381 E15K/E16K/E20K): T2 sequence (P49146 1-381 D35K/E37K/E39K) with E15K, E16K, E20K, K35D, K37E, K39E
Experimental: as §1

WT Nluc-Y2R-eYFP = target: T4, WT Nluc-Y2R-eYFP (Homo sapiens, UniProt P49146); test: NanoBRET equilibrium ligand binding
T4 construct: expressed in transfected cells; host or cells: membrane preparations of transiently transfected HEK293
T4 sequence (P49146 1-381): T2 sequence (P49146 1-381 D35K/E37K/E39K) with K35D, K37E, K39E
Experimental: Briefly, for each data point, membranes containing 0.03 μg total protein were suspended in ice-cold BRET binding buffer (Hank’s balanced salt solution (HBSS) containing 20 mM HEPES (pH 7.4), 0.1% bovine serum albumin (BSA)). The assay was performed in solid black 96-WP with a total assay volume of 100 μL in technical duplicate or triplicate. […] Raw BRET was calculated as the ratio of fluorescence to luminescence, and the background value of the unspecific binding controls was subtracted to obtain the netBRET signal.

## K18-Tamra-NPY: tetramethylrhodamine(Tamra)-labeled peptide (K^18-Tamra-NPY)
Nluc-Y2R-eYFP Δ2-41 [1]; HEK293 membranes, 10 min RT, mean, 95% CI 0.5907 to 0.7133, P<0.0001 vs WT
  BRETmax: 0.6520
Nluc-Y2R-eYFP Δ2-41 [1]; NanoBRET, HEK293 membranes
  Low-affinity binding constant reduction vs wild-type: about two-fold reduced
Nluc-Y2R-eYFP Δ2-41 [1]; mean, 95% CI 0.0357 to 0.0467
  Fraction high affinity: 0.0412
Nluc-Y2R-eYFP Δ2-41 [1]; replicate 1
  KD, high replicates (log): -9.51
  KD, low replicates (log): -6.16
Nluc-Y2R-eYFP Δ2-41 [1]; replicate 2
  KD, high replicates (log): -9.76
  KD, low replicates (log): -6.18
Nluc-Y2R-eYFP Δ2-41 [1]; replicate 3
  KD, high replicates (log): -9.64
  KD, low replicates (log): -6.21
Nluc-Y2R-eYFP Δ2-41 [2]
  Increase of ligand dissociation vs wild-type: two to three-fold
Nluc-Y2R-eYFP D/E35-39K
  Increase of ligand dissociation vs wild-type: two to three-fold
Nluc-Y2R-eYFP E15-20K
  Increase of ligand dissociation vs wild-type: two to three-fold
WT Nluc-Y2R-eYFP; HEK293 membranes, 10 min RT, mean, 95% CI 0.0273 to 0.0311
  BRETmax: 0.0292
WT Nluc-Y2R-eYFP; mean, 95% CI 0.0352 to 0.0881
  Fraction high affinity: 0.0617
WT Nluc-Y2R-eYFP; replicate 1
  KD, high replicates (log): -9.88
  KD, low replicates (log): -6.52
WT Nluc-Y2R-eYFP; replicate 2
  KD, high replicates (log): -9.40
  KD, low replicates (log): -6.56
WT Nluc-Y2R-eYFP; replicate 3
  KD, high replicates (log): -9.43
  KD, low replicates (log): -6.54
